Legend:
LexA-CIB1-biLINuS = biological target: T1, LexA-CIB1-biLINuS; experiment: cell-based or functional assay
T1 chain: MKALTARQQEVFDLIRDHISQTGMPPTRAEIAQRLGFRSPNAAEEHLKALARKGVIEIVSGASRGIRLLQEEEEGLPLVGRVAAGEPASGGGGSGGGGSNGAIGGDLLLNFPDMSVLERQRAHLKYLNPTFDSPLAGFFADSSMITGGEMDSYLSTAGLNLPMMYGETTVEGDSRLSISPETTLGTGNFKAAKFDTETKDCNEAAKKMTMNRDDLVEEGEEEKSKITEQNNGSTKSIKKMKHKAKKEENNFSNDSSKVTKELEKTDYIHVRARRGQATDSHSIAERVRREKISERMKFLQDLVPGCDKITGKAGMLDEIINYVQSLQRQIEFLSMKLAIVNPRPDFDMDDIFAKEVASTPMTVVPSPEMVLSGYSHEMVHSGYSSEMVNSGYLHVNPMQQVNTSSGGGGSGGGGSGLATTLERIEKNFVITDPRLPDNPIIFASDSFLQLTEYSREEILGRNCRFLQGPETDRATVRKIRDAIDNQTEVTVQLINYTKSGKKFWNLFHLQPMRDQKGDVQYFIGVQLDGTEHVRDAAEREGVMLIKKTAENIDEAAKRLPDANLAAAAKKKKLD

LexA-CIB1 (No biLINuS) = experiment: cell-based or functional assay

B1: CRY2PHR-VPR (other)
chain: MKMDKKTIVWFRRDLRIEDNPALAAAAHEGSVFPVFIWCPEEEGQFYPGRASRWWMKQSLAHLSQSLKALGSDLTLIKTHNTISAILDCIRVTGATKVVFNHLYDPVSLVRDHTVKEKLVERGISVQSYNGDLLYEPWEIYCEKGKPFTSFNSYWKKCLDMSIESVMLPPPWRLMPITAAAEAIWACSIEELGLENEAEKPSNALLTRAWSPGWSNADKLLNEFIEKQLIDYAKNSKKVVGNSTSLLSPYLHFGEISVRHVFQCARMKQIIWARDKNSEGEESADLFLRGIGLREYSRYICFNFPFTHEQSLLSHLRFFPWDADVDKFKAWRQGRTGYPLVDAGMRELWATGWMHNRIRVIVSSFAVKFLLLPWKWGMKYFWDTLLDADLECDILGWQYISGSIPDGHELDRLDNPALQGAKYDPEGEYIRQWLPELARLPTEWIHHPWDAPLTVLKASGVELGTNYAKPIVDIDTARELLAKAISRTREAQIMIGAAPASPKKKRKVEASSPGIRRLDALISTSLYKKAGYKEASGSGRADALDDFDLDMLGSDALDDFDLDMLGSDALDDFDLDMLGSDALDDFDLDMLINSRSSGSPKKKRKVGSQYLPDTDDRHRIEEKRKRTYETFKSIMKKSPFSGPTDPRPPPRRIAVPSRSSASVPKPAPQPYPFTSSLSTINYDEFPTMVFPSGQISQASALAPAPPQVLPQAPAPAPAPAMVSALAQAPAPVPVLAPGPPQAVAPPAPKPTQAGEGTLSEALLQLQFDDEDLGALLGNSTDPAVFTDLASVDNSEFQQLLNQGIPVAPHTTEPMLMEYPEAITRLVTGAQRPPDPAPAPLGAPGLPNGLLSGDEDFSSIADMDFSALLGSGSGSRDSREGMFLPKPEAGSAISDVFEGREVCQPKRIRPFHPPGSPWANRPLPASLAPTPTGPVHEPVGSLTPAPVPQPLDPAPAVTPEASHLLEDPDEETSQAVKALREMADTVIPQKEEAAICGQMDLSHPPPRGHLDELTTTLESMTEDLNLDSPLTPELNEILDTFLNDECLLHAMHISTGLSIFDTSLF
- increase of Fluc signal in the light-stimulated group comparing to the dark group (Jurkat cells) (LexA-CIB1-biLINuS): > 1000 fold
- induction of Fluc activity normalized by Rluc upon light stimulation compared to the dark control (HEK 293T) (LexA-CIB1-biLINuS): 133 fold
- mean cellular fluorescence intensity of mNeonGreen reporter, dark group, compared to the non-transfected cells (HEK 293T) (LexA-CIB1-biLINuS): 1.7 fold
- mean cellular fluorescence intensity of mNeonGreen reporter, light group, compared to the non-transfected cells (HEK 293T) (LexA-CIB1-biLINuS): 61 fold
- induction of Fluc activity normalized by Rluc upon light stimulation compared to the dark control (HEK 293T) (LexA-CIB1 (No biLINuS)): 68 fold

Source: patent US20230233607A1 (University of California, published 2023)
